According to patent publication US11135163B2, “Peptide hydrogel properties and its applications” (Kansas State University Research Foundation, priority 2014, dated 2021):

Legend:
[1] = system: HeLa cells; test: HeLa cell viability (CCK-8) in 3D h9e hydrogel; format: cell-based; conditions: 3-day treatment, various concentrations of camptothecin, in h9e hydrogel
Protocol: Cell culture and drug efficacy/diffusion tests: HeLa cells were grown in the hydrogel in 3D. Aliquots of HeLa cells solution were added into […] hydrogel with DMEM containing 10% FBS with a final peptide concentration of 0, 0.25, 0.5 and 1 wt %. 100 μl of cell mixture solution (3×10^4 cells per well) was seeded into a 96-well culture plate (Becton Dickinson Labware, Franklin Lakes, N.J.) and placed in an incubator (Nuair, Playmouth, Minn.) in a humidified 5% CO2 atmosphere at 37° C. for about 30 min. After complete hydrogelation, 10 μl of DMEM containing 0, 50 uM, 100 uM, or 200 uM camptothecin was added on top of the hydrogel to obtain camptothecin concentrations of 0 μM, 3.125 μM, 6.25 μM, and 12.5 μM, respectively, upon total diffusion in the hydrogel. Then, 50 ul of DMEM was carefully added to the top of the hydrogel to prevent drying during long-term incubation. All measurements were made at least in triplicate, and the plates were incubated for 3 days. A CCK-8 assay was used to determine cell viability after each treatment. 10 μL of CCK solution was added to each well. After 4 h of incubation, the absorbance at 450 nm was collected on a microplate reader (mQuant, Bio-Tek) and corrected by subtracting the background signal from a wall containing only 160 ul DMEM containing 10% FBS. […]

[2] = Gelation test of ECM ligand built-in or blended hydrogels; format: physicochemical; conditions: 0.5% peptide solution triggered with 0.5% BSA solution, 37° C., 30 min
Protocol: In this Example, an ECM ligand RGD built-in peptide (i.e., FLIVI-GSII-GPGGDGPGGDGRGD (SEQ ID NO:69)) was formulated into a hydrogel at 0.5% peptide solution triggered with 0.5% BSA solution. Gelation test was performed at 37° C. for 30 min. Gel strength was about 500 Pa, similar as the regular h9e hydrogel (FIG. 18.). Peptide synthesis followed the same procedure described in Example V.
Rheology Measurements: The hydrogel samples were characterized for mechanical properties. Gelation was determined right after the peptide solution triggered using either metal ion (i.e., Ca++) or albumin proteins (i.e., BSA) using C-VOR 150 rheometer system at both room temperature and 37° C. following our previous procedure. The maximum gel strength after 24 hours was used as the gel strength. The hydrogel samples after 24 hours was used and loaded in the probe system, and examined at a single frequency (1 Hz) and steady shear strain (1%). For shear-thinning experiments, the samples were subjected to shear and then observe the strain of the storage (G′) and loss (G″) modulus as a function of time following our previous procedures.
Regular h9e peptide described in Example VI can be blended with ECM ligands and functional proteins. […]

[3] = Instantaneous gelation time sweep of peptide sequences 1, 3 and 4; format: physicochemical; conditions: for final gel strength after 30 minute gelation time sweep: triggered with 100 mM CaCl2 solution (FIG. 12, 13)
Protocol: Similar to the methods used in U.S. 2013/0018004. Hydrogels were prepared with peptide 1, 3, and 4 alone, or mixture of peptide sequence 1 and 4 at 1:1 ratio. Hydrogels were triggered by calcium ions and BSA alone or co-trigger (calcium ions+BSA).

## CC[C@@]1(O)C(=O)OCc2c1cc1n(c2=O)Cc2cc3ccccc3nc2-1 [Camptothecin, reference compound]
[1]
  HeLa cell viability: dose-dependent decrease in cell viability

## FLIVI-GSII-GPGGDGPGGDGRGD (FLIVIGSIIGPGGDGPGGDGRGD; FLIVI-GSII N-terminal extension; Derivative of spider flagelliform silk protein and a trans-membrane segment of subunit IV in the dihydropyridine sensitive human muscle L-type calcium channel with built-in ECM ligand) [SEQ ID NO:69]
[2]
  Gel strength: about 500 Pa

## FLIVIGSIIGPGVDPGGAD (Derivative of spider flagelliform silk protein and a trans-membrane segment of subunit IV in the dihydropyridine sensitive human muscle L-type calcium channel) [Sequence 4]
[3]
  hydrogel formation: yielded a peptide hydrogel
  final gel strength after 30 minute gelation time sweep: 496 Pa
[3]; triggered with BSA
  gel strength: about 150 Pa
[3]; triggered with calcium
  gel strength: about 550 Pa

## FLIVIGSIIPGGGDGPGGD (Derivative of spider flagelliform silk protein and a trans-membrane segment of subunit IV in the dihydropyridine sensitive human muscle L-type calcium channel) [Sequence 3]
[3]
  hydrogel formation: yielded a peptide hydrogel
  final gel strength after 30 minute gelation time sweep: 196 Pa
